Laboratory results as given in patent US20080058636A1, “METHODS OF MYOCARDIAL IMAGING” (Epix Pharmaceuticals, Inc., priority 2005, published 2008).
Bridge positions count the residues as written; N and C are the ends. Square brackets hold non-standard residues; d marks the D form. Ends that are not written are not given here.

Assays:
[1] = molecular target: rat collagen (acid soluble, type I, rat tail, Upstate 08-115) (rat) (UniProt P02454); assay: dried collagen assay
[2] = molecular target: human collagen type I (acid soluble, extracted from placenta, Sigma C7774) (human) (UniProt P02452); assay: dried collagen assay
Chain of human collagen type I (acid soluble, extracted from placenta, Sigma C7774) (human) (P02452 162-1218 limits assumed, chain 1 of 2): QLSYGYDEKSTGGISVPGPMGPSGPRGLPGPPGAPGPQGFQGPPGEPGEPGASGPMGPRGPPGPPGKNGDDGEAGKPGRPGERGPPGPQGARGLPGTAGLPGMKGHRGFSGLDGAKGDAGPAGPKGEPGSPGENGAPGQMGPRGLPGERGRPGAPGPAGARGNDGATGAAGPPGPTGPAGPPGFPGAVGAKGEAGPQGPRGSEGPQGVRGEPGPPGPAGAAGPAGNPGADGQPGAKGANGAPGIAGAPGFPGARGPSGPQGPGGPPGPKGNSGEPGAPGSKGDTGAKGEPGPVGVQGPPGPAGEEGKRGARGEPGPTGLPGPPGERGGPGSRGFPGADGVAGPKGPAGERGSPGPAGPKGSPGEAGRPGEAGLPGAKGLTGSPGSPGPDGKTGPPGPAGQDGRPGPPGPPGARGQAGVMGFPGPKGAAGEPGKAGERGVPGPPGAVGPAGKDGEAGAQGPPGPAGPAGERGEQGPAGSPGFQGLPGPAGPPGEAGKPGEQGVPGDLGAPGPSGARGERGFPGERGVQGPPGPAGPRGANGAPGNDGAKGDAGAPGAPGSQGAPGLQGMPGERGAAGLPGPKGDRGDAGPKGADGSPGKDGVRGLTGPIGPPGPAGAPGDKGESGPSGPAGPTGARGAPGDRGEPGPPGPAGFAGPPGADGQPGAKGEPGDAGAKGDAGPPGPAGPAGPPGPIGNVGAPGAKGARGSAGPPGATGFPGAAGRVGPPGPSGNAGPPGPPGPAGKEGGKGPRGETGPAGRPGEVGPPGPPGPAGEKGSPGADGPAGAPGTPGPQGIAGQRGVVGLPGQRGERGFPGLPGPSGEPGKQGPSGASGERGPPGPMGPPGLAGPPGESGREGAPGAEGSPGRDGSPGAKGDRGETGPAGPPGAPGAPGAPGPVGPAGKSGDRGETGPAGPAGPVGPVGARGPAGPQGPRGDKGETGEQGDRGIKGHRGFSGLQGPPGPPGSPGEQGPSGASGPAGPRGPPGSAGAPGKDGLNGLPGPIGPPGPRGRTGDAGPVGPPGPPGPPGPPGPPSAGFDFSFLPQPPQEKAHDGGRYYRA
Chain of human collagen type I (acid soluble, extracted from placenta, Sigma C7774) (human) (P08123 80-1119 limits assumed, chain 2 of 2, further chain): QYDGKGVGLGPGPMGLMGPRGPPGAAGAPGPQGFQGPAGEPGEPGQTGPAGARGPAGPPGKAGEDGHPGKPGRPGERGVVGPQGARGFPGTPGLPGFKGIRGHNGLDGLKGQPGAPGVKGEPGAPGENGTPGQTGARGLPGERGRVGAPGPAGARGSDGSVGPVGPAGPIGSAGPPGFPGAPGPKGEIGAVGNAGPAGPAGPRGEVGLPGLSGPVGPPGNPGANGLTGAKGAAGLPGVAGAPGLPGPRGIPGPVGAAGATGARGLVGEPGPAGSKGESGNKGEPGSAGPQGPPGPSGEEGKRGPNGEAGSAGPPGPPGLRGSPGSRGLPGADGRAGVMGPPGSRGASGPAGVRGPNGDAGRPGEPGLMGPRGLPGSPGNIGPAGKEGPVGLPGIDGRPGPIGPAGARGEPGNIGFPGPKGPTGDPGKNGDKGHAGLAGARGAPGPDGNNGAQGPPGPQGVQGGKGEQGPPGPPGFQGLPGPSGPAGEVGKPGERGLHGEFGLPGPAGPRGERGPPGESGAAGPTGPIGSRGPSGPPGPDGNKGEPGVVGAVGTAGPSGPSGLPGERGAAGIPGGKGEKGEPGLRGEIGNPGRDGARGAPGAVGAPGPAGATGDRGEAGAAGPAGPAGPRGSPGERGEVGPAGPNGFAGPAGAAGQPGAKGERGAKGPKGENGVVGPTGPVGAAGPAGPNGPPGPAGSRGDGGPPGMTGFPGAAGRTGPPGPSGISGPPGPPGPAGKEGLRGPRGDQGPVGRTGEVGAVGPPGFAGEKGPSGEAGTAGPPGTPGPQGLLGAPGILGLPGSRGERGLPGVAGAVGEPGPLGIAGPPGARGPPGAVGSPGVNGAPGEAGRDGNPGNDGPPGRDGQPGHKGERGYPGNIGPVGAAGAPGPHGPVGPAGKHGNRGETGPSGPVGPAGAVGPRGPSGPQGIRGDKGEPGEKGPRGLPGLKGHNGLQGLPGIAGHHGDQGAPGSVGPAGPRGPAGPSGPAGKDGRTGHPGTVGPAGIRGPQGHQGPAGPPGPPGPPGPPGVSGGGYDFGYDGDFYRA

Chain of rat collagen (acid soluble, type I, rat tail, Upstate 08-115) (rat) (P02454 152-1207, chain 1 of 2): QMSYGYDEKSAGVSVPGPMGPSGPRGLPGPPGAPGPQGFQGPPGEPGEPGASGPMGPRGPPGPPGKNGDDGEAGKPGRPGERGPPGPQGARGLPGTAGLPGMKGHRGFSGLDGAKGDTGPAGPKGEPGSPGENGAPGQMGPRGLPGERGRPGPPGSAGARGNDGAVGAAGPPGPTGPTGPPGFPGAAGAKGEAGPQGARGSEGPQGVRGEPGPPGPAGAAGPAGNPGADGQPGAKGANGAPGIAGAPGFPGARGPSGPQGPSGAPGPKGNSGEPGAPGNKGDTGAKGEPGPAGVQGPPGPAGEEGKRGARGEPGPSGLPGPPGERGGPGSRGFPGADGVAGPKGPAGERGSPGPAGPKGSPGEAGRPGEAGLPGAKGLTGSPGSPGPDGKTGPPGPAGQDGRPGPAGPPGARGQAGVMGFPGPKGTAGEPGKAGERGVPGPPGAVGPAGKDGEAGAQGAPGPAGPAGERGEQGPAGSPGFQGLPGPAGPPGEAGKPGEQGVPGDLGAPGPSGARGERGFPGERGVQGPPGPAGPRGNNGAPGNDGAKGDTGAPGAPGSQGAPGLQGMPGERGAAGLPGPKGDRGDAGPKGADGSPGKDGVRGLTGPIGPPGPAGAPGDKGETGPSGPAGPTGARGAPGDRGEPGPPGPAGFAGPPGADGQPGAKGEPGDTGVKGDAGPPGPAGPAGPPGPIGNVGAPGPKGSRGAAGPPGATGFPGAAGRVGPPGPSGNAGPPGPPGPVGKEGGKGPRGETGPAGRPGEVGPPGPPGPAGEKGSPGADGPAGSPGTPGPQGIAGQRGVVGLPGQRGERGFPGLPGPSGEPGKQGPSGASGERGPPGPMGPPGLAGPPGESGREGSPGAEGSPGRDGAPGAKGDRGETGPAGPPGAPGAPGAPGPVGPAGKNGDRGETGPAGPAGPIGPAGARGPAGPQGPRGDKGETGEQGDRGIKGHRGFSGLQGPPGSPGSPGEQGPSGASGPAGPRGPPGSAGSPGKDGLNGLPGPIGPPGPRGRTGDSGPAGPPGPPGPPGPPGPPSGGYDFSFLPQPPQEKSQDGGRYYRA
Chain of rat collagen (acid soluble, type I, rat tail, Upstate 08-115) (rat) (P02466 86-1125, chain 2 of 2, further chain): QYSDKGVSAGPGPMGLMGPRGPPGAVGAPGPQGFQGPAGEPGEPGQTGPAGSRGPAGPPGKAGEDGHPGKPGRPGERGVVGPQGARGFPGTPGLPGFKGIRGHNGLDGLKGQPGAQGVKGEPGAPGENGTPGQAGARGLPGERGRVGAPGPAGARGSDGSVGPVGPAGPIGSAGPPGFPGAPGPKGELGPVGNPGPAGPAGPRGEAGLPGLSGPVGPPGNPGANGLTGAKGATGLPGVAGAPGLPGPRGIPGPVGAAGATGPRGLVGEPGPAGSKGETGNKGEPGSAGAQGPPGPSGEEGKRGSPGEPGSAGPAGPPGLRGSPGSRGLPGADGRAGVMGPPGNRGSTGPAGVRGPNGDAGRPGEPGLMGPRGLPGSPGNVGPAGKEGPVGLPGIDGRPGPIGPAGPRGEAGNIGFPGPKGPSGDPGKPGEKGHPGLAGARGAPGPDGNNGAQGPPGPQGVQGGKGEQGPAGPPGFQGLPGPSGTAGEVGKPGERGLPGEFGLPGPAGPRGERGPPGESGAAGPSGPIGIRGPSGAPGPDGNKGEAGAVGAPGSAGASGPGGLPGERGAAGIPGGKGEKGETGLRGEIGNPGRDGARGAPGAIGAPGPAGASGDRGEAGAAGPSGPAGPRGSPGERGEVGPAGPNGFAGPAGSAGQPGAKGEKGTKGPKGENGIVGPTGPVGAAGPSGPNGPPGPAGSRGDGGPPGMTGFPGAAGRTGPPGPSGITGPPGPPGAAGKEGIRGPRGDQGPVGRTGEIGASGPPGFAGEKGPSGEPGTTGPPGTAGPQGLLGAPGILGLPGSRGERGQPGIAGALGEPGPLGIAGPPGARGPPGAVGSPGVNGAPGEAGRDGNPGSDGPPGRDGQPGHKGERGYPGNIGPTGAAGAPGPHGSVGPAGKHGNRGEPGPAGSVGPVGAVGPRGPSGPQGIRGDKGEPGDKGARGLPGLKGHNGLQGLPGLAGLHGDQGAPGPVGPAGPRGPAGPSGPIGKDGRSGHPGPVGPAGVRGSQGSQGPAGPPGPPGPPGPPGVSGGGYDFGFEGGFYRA

| % Collagen Binding [1] | % Collagen Binding [2] | Binder |
| --- | --- | --- |
| 86% | 87% | DWTCSRDEYTWHCNYE [SEQ ID NO: 181] |
| 63% | 73% | DWTCSLDEYTWHCNYE [SEQ ID NO: 183] |
| 27% | 30% | GQWTCSGDEYTWHCN[dY]E (disulfide 5-14 (inferred); not fully specified (C-terminus); printed as Q W T C S G D E Y T W H C N y E) [SEQ ID NO: 177] |
| 2% | 2% | GQWTCSGDEYTWHC[dN]YE (disulfide 5-14 (inferred); not fully specified (C-terminus); printed as Q W T C S G D E Y T W H C n Y E) [SEQ ID NO: 176] |
| 75% | 81% | DWTCSADEYTWHCNYE [SEQ ID NO: 179] |
| 2% | 2% | GQWTCSGDEYTWH[dC]NYE (disulfide 5-14 (inferred); not fully specified (C-terminus); printed as Q W T C S G D E Y T W H c N Y E) [SEQ ID NO: 175] |
| 87% | 90% | GQWTCSGDEYTWHCNY[dE] (disulfide 5-14 (inferred); not fully specified (C-terminus); printed as Q W T C S G D E Y T W H C N Y e) [SEQ ID NO: 178] |
| 0% | 5% | GQWTCSGDEYTW[dH]CNYE (disulfide 5-14 (inferred); not fully specified (C-terminus); printed as Q W T C S G D E Y T W h C N Y E) [SEQ ID NO: 174] |
| 86% | 89% | DWTCSYDEYTWHCNYE [SEQ ID NO: 182] |
| 72% | 81% | DWTCSSDEYTWHCNYE [SEQ ID NO: 180] |
